Reference: publication PMC7806473
Values joined by “and” are separate entries in the source; they are usually repeats but may differ in a detail not shown here. Equal entries are not always repeated.

Tests used:
[1] = target: T1, bovine alpha-lactalbumin (α-LA), calcium-depleted (bovine), P00711; assay: AUC; sedimentation velocity, 50,000 rpm, 20 °C, absorbance at 280 nm, c(s) continuous distribution analysis with SEDFIT; conditions: remark: other sources report otherwise
T1 chain: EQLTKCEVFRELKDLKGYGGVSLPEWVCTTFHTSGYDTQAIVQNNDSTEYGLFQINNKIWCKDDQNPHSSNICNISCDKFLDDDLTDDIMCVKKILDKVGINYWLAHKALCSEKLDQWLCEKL

[2] = target: T1, bovine alpha-lactalbumin (α-LA), …; assay: MALDI-TOF-MS; 1:1 v/v mixture of 0.1% aqueous trifluoroacetic acid MALDI matrix and 50 mM sinapinic acid ionization matrix; conditions: remark: other sources report otherwise

stoichiometry N [1]: 2 and 3 | stoichiometry N [2]: 2 and 3 and 4
B1: bovine alpha-lactalbumin (α-LA), calcium-depleted, P00711 20-142 (natural protein)
chain: EQLTKCEVFRELKDLKGYGGVSLPEWVCTTFHTSGYDTQAIVQNNDSTEYGLFQINNKIWCKDDQNPHSSNICNISCDKFLDDDLTDDIMCVKKILDKVGINYWLAHKALCSEKLDQWLCEKL
